For five molecules, Kd results are on record in paper PMC11109203 (2024).

The labels stand for the following.
B1: FITC labeled Clr3 (enzyme)
chain: MLASNSDGASTSVKPSDDAVNTVTPWSILLTNNKPMSGSENTLNNESHEMSQILKKSGLCYDPRMRFHATLSEVDDHPEDPRRVLRVFEAIKKAGYVSNVPSPSDVFLRIPAREATLEELLQVHSQEMYDRVTNTEKMSHEDLANLEKISDSLYYNNESAFCARLACGSAIETCTAVVTGQVKNAFAVVRPPGHHAEPHKPGGFCLFNNVSVTARSMLQRFPDKIKRVLIVDWDIHHGNGTQMAFYDDPNVLYVSLHRYENGRFYPGTNYGCAENCGEGPGLGRTVNIPWSCAGMGDGDYIYAFQRVVMPVAYEFDPDLVIVSCGFDAAAGDHIGQFLLTPAAYAHMTQMLMGLADGKVFISLEGGYNLDSISTSALAVAQSLLGIPPGRLHTTYACPQAVATINHVTKIQSQYWRCMRPKHFDANPKDAHVDRLHDVIRTYQAKKLFEDWKITNMPILRDSVSNVFNNQVLCSSNFFQKDNLLVIVHESPRVLGNGTSETNVLNLNDSLLVDPVSLYVEWAMQQDWGLIDINIPEVVTDGENAPVDILSEVKELCLYVWDNYVELSISKNIFFIGGGKAVHGLVNLASSRNVSDRVKCMVNFLGTEPLVGLKTASEEDLPTWYYRHSLVFVSSSNECWKKAKRAKRRYGRLMQSEHTETSDMMEQHYRAVTQYLLHLLQKARPTSQ
modifications: FITC label

Assay [1] deals with Sad1_(1-169)-5R (S. pombe, UniProt Q09825 1-169, D114R | E117R | F118R | E121R | E122R). The assay can be described thus: MST; mixture of Sad1-5R and H2AB.
Assay [2] has as its target Sad1_(1-169)-H2AB complex (S. pombe, UniProt Q09825 1-169; P04913 32-126; P04909 15-108). The assay can be described thus: MST; mixture of Sad1 and H2AB.
In assay [3] the target is S. pombe H2AB fusion protein (H2B_(32-126)-H2A_(15-108)) (S. pombe, UniProt P04913 32-126; P04909 15-108). The assay can be described thus: ITC. (In general: Isothermal titration calorimetry measures the heat released or taken up as one component is titrated into another.)
For assay [4], the target named is H2AB with H2A R79E (S. pombe, UniProt P04913 32-126; P04909 15-108, R79E). Description: ITC.
Assay [5] has as its target H2AB with H2B Y42R (S. pombe, UniProt P04913 32-126; P04909 15-108, Y42R). Description: ITC.
For assay [6], the target named is B1. Description: MST.

A value given as a limit tells only on which side of the number the result lay.

Regarding B1, the Kd (in general, the equilibrium constant for the complex coming apart) in assay [1] stood at 47.2 µM; in assay [2], 10.3 µM.

B2: Sad1_(60-169) (domain or fragment)
chain: ESITPKQRFPAPNFEQAYHSNIRYEQEESDNEEFENVVKNGHEASTNVFYESDGDDEEFVNEEYENSIDEESDDEGYSLNEDTTATNASFRYPMNQRSTRKSQFYSSKFK
For the molecule B2, the Kd in assay [3] was 9.1 µM; in assay [4] it was 90.1 µM; in assay [5], 44.8 µM.

B3: Sad1_(60-169) F118R (domain or fragment)
chain: ESITPKQRFPAPNFEQAYHSNIRYEQEESDNEEFENVVKNGHEASTNVFYESDGDDEERVNEEYENSIDEESDDEGYSLNEDTTATNASFRYPMNQRSTRKSQFYSSKFK
For the molecule B3, the Kd in assay [3] is > 200 µM.

B4: Sad1_(60-169) with charge-reverse mutations of D114 and E117 (domain or fragment)
chain: ESITPKQRFPAPNFEQAYHSNIRYEQEESDNEEFENVVKNGHEASTNVFYESDGRDERFVNEEYENSIDEESDDEGYSLNEDTTATNASFRYPMNQRSTRKSQFYSSKFK
Consider B4, for which, in assay [3], the Kd was determined as 73.5 µM.

B5: Sad1_(1-169) (domain or fragment)
chain: MFTNTPVGGKRERQNGAHPAWSTLGANSAQIHQNTADLASKMHKLRYTKIRSPPTRVSIESITPKQRFPAPNFEQAYHSNIRYEQEESDNEEFENVVKNGHEASTNVFYESDGDDEEFVNEEYENSIDEESDDEGYSLNEDTTATNASFRYPMNQRSTRKSQFYSSKFK
In assay [6], B5 yielded a Kd of 42.9 µM.
